From patent US20200270310A1, “MAFG AS A POTENTIAL THERAPEUTIC TARGET TO RESTORE CHEMOSENSITIVITY IN PLATINUM-RESISTANT CANCER CELLS” (FUNDACÓIN PARA LA INVESTIGACIÓN BIOMÉDICA DEL HOSPITAL …, priority 2017, published 2020)
Entries after “also recorded” stand apart in the source; their conditions may differ.

Experiments:
H1299 cells [1] = assay: Viability to CDDP with and without apMAFG6F; type: cell-based, human
Text: The human cancer cells H23 and A2780, and the HEK-293T epithelial cells were purchased from ATCC (Manassas, USA) and ECACC (Sigma, Spain) and cultured as recommended. The CDDP-resistant variants H23R and A2780R were established in our laboratory as previously described, using CDDP (Farma Ferrer, Spain) for cell viability assays. To validate the results obtained from the resistant cell lines established in our laboratory, we also used the CDDP-resistant lung cancer cell line H1299, with IC50 over 7, purchased from ATCC and maintained as recommended.
HEK293 and H23S/R cells were seeded into 96-well plates then transfected with 5, 12.5, 25, 75 and 100 nM of MAFG aptamers or treated with PBS-Mg using Jet Pei PolyPlus transfection reagent (PolyPlus Transfection, USA). The dose of 25 nM aptamer was afterwards used in combination with increased doses of CDDP to assay viability and ROS production as described above. To confirm the aptamer-transfection efficiency cells were seeded in 24-well plates for aptamer isolation and confirmation of aptamer transfection by quantitative analysis. A Myc-DDK-tagged ORF clone of MAFG the negative control pCMV6 were used for in transient transfection (OriGene, USA) in combination with MAFG-aptamers following the same procedure.

IMIM-PC2 cells = assay: Viability to CDDP; type: cell-based, human
Text: Fifteen human cancer cell lines were purchased from ATCC (Manassas, Va.) or ECACC (Sigma-Aldrich, Spain) and cultured as recommended. The CDDP-resistant variants A2780R and OVCAR3R were selected after a final exposure to […] cisplatin, respectively (Farma Ferrer, Spain), as previously described for H23R and H460R variants The additional 11 human cell lines, PC-3, LNCAP, H727, HT29, A549, BT474, LoVo, IMIM-PC-2, SKOV3, SW780 and IMR90, were used for further validations. For viability assays cells were treated with increasing doses of CDDP. The epigenetic reactivation drugs 5Aza-2deoxycytidine (5Aza-dC) and trichostatin A (TSA) (Sigma-Aldrich, Spain) were used at […] and at 300nM respectively.

[2] = molecular target: T1, MAFG in H23S and H23R cells (Homo sapiens, UniProt O15525); assay: Aptacytochemistry with digoxigenin-labeled individual aptamers; type: cell-based
T1 construct: endogenous in cells; host or cells: H23S and H23R (NSCLC cells, fixed)
Protocol: Following the methodology described above, H23R cells were incubated with 6 pmol of digoxigenin-labeled aptamers (IBA Life Sciences) in selection buffer for 1 hour at room temperature. Subsequently, cells were washed three times with PBS and incubated with anti-digoxigenin conjugated with 5′ AlexaFluor 488 (R&D systems, USA) at 1/500 dilution in blocking buffer for 1 hour at room temperature, as secondary antibody. Finally, the cells were mounted on glass slides using glycerol-buffer containing p-phenylenediamine and 1/750 dilution of Dapi for nuclear staining. Controls were made by omitting the aptamer. Colocalization was assessed by confocal microcopy as described in (iii).

H1299 cells [3] = assay: Expression of MAFG and HMOX1 in cells carrying the aptamer; type: cell-based, human; conditions: cells carrying apMAFG6F
Protocol: For semiquantitative RT-PCR, 500 ng of total RNA isolated from cell lines was used for RT reaction using PrimeScript™ RT Master (Clontech-Takara, USA) and subsequent semiquantitative PCR using Promega PCR Mix (Promega, USA) as previously described. Relative quantification was performed by measuring the intensity of band amplified using ImageJ software. Primers for HMOX1 (F: 5′-[…]-3′; R: 5′-[…]-3′), MAFG (F: 5′-[…]-3′; R: 5′-[…]-3′) and GAPDH (F: 5′-GAGAGACCCTCACTGCTG-3′; R: 5′-[…]-3′) were designed to include the probe from the array in order to assure the correct transcript identification.

H23R cells = assay: ROS production and viability after aptamer transfection and CDDP treatment; type: cell-based, human
Protocol: FIG. 7: Viability and ROS production assay in H23R cells after apMAFG6F transfection. Each experimental group was exposed for 72 h to 6 different CDDP concentrations, and data were normalized to each untreated control, set to 100%. The data represent the mean±SD of at least 2 independent experiments performed in duplicate at each drug concentration for each cell line analyzed.
H23/A2780 cells were cultured in 96-well black plates at density of 10,000 cells/well. Cells were treated with 6 different doses of CDDP for 24, 48 and 72 h in RPMI containing 10% FBS. Then treatments were removed and cells were loaded with the fluorescent probe 2′,7′-dichlorodihydrofluorescein diacetate (H2DCFDA) (10 μM) for 45 minutes in RPMI medium (FBS free). Cells were washed twice with RPMI (10% FBS), and fluorescence was recorded in a Fluostar Optima, each hour, over 4 hours period. […] ROS production was calculated dividing the mean H2DCFDA fluorescence by the mean viability. […] All experiments included cells treated with RPMI alone (Basal), and one well without cells as fluorescence basal.
H23/A2780 cells were cultured in 96-well black plates at density of 10,000 cells/well. […] Cells were washed twice with RPMI (10% FBS), and fluorescence was recorded in a Fluostar Optima at 520 nm after excitation at 485 nm. […] ROS production was calculated dividing the mean H2DCFDA fluorescence by the mean viability. […]

| CDDP IC50 (H1299 cells [1]; H1299, as stated in materials, unit not given) | Molecule | CDDP IC50 (H1299 cells [1]; untransfected H1299) [µg/mL] | IC50 of CDDP (IMIM-PC2 cells) | cellular localization of the aptamer [2] | number of dots per nucleus, H23R versus H23S [2] | HMOX1 expression (H1299 cells [3]) | MAFG expression (H1299 cells [3]) | cell viability after aptamer transfection and CDDP (H23R cells; measured in parallel to ROS) | ROS production after aptamer transfection and CDDP (H23R cells; resistant cells carrying aptamer vs untransfected, p<0.005 at 4 μg/ml CDDP) |
| --- | --- | --- | --- | --- | --- | --- | --- | --- | --- |
| over 7 | [NH2][Pt]([NH2])([Cl])[Cl] [CDDP, Cisplatin] | 10 | over 2 μg/ml | – | – | – | – | – | – |
| – | GCGGATGAAGACTGGTGTCGATGCATGTGTAGTGCATTTCGAGCCGTTCTATTGGTGTGCCCTAAATACGAGCAAC (nucleic acid, chemistry not given here, DNA aptamer selected against the MAFG protein by SELEX) GCGGATGAAGACTGGTGTCGATGCATGTGTAGTGCATTTCGAGCCGTTCTATTGGTGTGCCCTAAATACGAGCAAC | – | – | preferentially located at the nuclei | remarkable differences | decrease | decrease | decrease of cell viability; also recorded: decrease in cell viability | increase of ROS production; also recorded: linear dose-response relationship |
